Reference: the nanobody polyreactivity screen of Harvey et al. (2022)

Assay: yeast display, Sf9 membrane polyspecificity reagent, FACS + sequencing; frameworks hold sequencing errors
Outline: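 After 36–48 hours of galactose induction, yeast (Saccharomyces cerevisiae BJ5465) displaying a synthetic nanobody library were stained at 4 °C for 1 hour with 10% biotinylated, detergent-solubilized Sf9 membrane reagent. Streptavidin microbeads enriched the stained cells before FACS sorting into low and high (top ~1%) gates on anti-HA and streptavidin fluorescence. Each clone's polyreactivity label reflects its gate of origin.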

| Sequence | polyreactivity (PSR sort gate) |
| --- | --- |
| QVQLVESGGGLVQAGGSLRLSCAASGFIFWVYAMGWYRQAPGKESELVAAITSGGRTYYADSEKGRFTISRDNAKNTVYLQMNSLKPEDTAVYYCAARWHYGYYSYYYWGQGTQVTVSS | high polyreactivity |
| QVQLVESGGGLVQAGGSLRLSCAASGFIFWYYAMGWYRQAPGKERELVATITTGGGTNYADSVKGRFTISRDNAKNTVYLQMNSLKPEDTAVYYCNADFRWYAEDDYWGQGTQVTVSS | low polyreactivity |
| QVQLVESGGGLVQAGGSLRLSCAASGFIFYAYAMGWYRPAPGKERELVAAISQRGGITYYADSVKGRFTISRDNAKNTVYLQMNRLKPEDTAVYYCNAGQRYYTSRYYYWGQGTQVTVSS | high polyreactivity |
| QVQLVESGGGLVQAGGSLRLSCAASGFIFYDNAMGWYRQAPGKERELVAAITSGGSTYYADSVKGRFTISRDNAKNTVYLQMNSLKPEDTAVYYCATRPWGSWYYYWGQGTQVTVSS | high polyreactivity |
| QVQLVESGGGLVQAGGSLRLSCAASGFIFYDYAMGWYRQAPGKERELVASISWSTGSTYYADSVKGRFTISRDNAKNTVYLQMNSLKPEDTADYYCAADGYPLQLYNYWGQGTQVTVSS | low polyreactivity |
| QVQLVESGGGLVQAGGSLRLSCAASGFIFYDYDMGWYRQSPGKERELVAAISSGGSTNYADSVKGRFTISRDNAKNTVYLQMNSLIPEDTAVYYCATDVGVERRQVDRYIYDYWGQGTQVTVSS | low polyreactivity |
| QVQLVESGGGLVQAGGSLRLSCAASGFIFYGYAMGWYRQAPGKERELVAGISTGGSTNYADSVKGRFTISRDNAKNTVYLQMNSLKPEDTAVYYCAKRAYFYYGRYDYWGQGTQVTVSS | low polyreactivity |
| QVQLVESGGGLVQAGGSLRLSCAASGFIFYGYTMGWYRQAPGKERELLARISRRGGSTYYADSVKGRFTISRDNAKNTVYLQMNSLKPEDTAVYYCATDDARRGYGYGYWGQGPQVTVSS | low polyreactivity |
| QVQLVESGGGLVQAGGSLRLSCAASGFIFYGYTMGWYRQAPGKERELVAAITFSGGRTYYADSVKGRFTISRDNAKNTVYLQMNSLKPEDTAVYYCNARVVNYFRPRTGAREYDYWGQGTQVTVSS | high polyreactivity |
| QVQLVESGGGLVQAGGSLRLSCAASGFIFYHNAMGWYRQAPGKERELVAAISSTGGSTHYADSVKGRFTISRDNAKNTVYLQMNSLKPEDTAVYYCNADPRRRWYDYWGQGTQVTVSS | high polyreactivity |
| QVQLVESGGGLVQAGGSLRLSCAASGFIFYHNAMGWYRQAPGKERELVAAISYSGGSTYYADSVKGRFTISRVNAKNTVYLQMNSLKPEDTAVYFCATPQTRTYDYWGQGTQVTVSS | high polyreactivity |
| QVQLVESGGGLVQAGGSLRLSCAASGFIFYINAMGWYRQAPGKERELVAAINWRTGSTYYADSVKGRFTISRDNAKNTVYLLMNSLKPEDTAVYYCAAYGYWRRADTEFDYWGQGTQVTVSS | low polyreactivity |
| QVQLVESGGGLVQAGGSLRLSCAASGFIFYIYAMGWYRQAPGKERELVAAFTSGGSTYYADSVKGRFTISRDNAKNTVYLQMNSLKPEDTAVYYCAAESYYGYDYWGQGTQVTVSS | low polyreactivity |
| QVQLVESGGGLVQAGGSLRLSCAASGFIFYKYAMGWYRQAPGKERELVAAITRSGGSTFYADSVKGRFTISRDNAKNTVYLQMNSLKPEDTAVYYCAADAIVQVTPRPRRYDYWGQGTQVTVSS | high polyreactivity |
| QVQLVESGGGLVQAGGSLRLSCAASGFIFYKYGMGWYRQAPGKERELVAAINRRGGTTSYADSVKGRFTISRDNAKNTVYLQMNSLKPEDTAVYYCAASAPGGQDDYWGQGTQVTVSS | high polyreactivity |
| QVQLVESGGGLVQAGGSLRLSCAASGFIFYKYVMAWYRQAPGKERELVAAINWSGGSTYYADSVKGRFTISRDNAKNTVYLQMNSLKPEDTAVYYCAALSQYRYDYWGQGTQVTVSS | high polyreactivity |
| QVQLVESGGGLVQAGGSLRLSCAASGFIFYLNVMGWYRQAPGKERELVATITSGGSTNYADSVKGRFTISRDNAKNTVYLQMNSLKPEDTAVYYCAAEQVWYDWEYDYWGQGTQVTVSS | high polyreactivity |
| QVQLVESGGGLVQAGGSLRLSCAASGFIFYPNAMGWYRQAPGKERELVAGISWSGTSTYYADSVKGRFTISRDNAKNTVYLQMNSLKPEDTAVYYCNRVFYHFDVDRYDYWGQGTQVTVSS | low polyreactivity |
| QVQLVESGGGLVQAGGSLRLSCAASGFIFYPYAMGWYRQAPGKERELVAVITSGGRTYYADSVKGRFTISRDNAKNTVYLQMNSLKPEDTAVYYCAAQYIQAWRLFDYWGQGTQVTVSS | low polyreactivity |
| QVQLVESGGGLVQAGGSLRLSCAASGFIFYPYAMGWYRQAPGKEREVVAVITSGGRTYYADSVKGRFTISRDNAKNTVYLQMNSLKPEDTAVYYCAARYGRIHWKANWPEYGYWGQGTQVTVSS | low polyreactivity |
| QVQLVESGGGLVQAGGSLRLSCAASGFIFYQYAMGWYRQAPGKERELVAAISTRGGSTYYADSVKGRFTISRDNAKNTVYLQMNSLKPEDTAVYYCNVLKYLSPGTYDYDYWGQGTQVTVSS | high polyreactivity |
